Positions count from the first letter of the chain named.
B1: E9P2-2 (ssRNA)
RNA: GGGAGGACGAUGCGGUGCCCACUAUGCGUGCCGAAAAACAUUUCCCCCUCUACCCCAGACGACUCGCCCGA
modifications: 2'-F C and U
B2: TN9 (ssRNA)
RNA: GGGAGGACGAUGCGGAACAAUGCACUCGUCGCCGUAAUGGAUGUUUUGCUCCCUGCAGACGACUCGCCCGA
modifications: 2'-F C and U
B3: TN7 (ssRNA)
RNA: GGGAGGACGAUGCGGAACACUUUCCCAUGCGUCGCCAUACCGGAUAUAUUGCUCCCAGACGACUCGCCCGA
modifications: 2'-F C and U
B4: E9P2-1 (ssRNA)
RNA: GGGAGGACGAUGCGGUGCCCAUAGAAGCGUGCCGCUAAUGCUAACGCCCUCCCCCAGACGACUCGCCCGA
modifications: 2'-F C and U
B5: TN21 (ssRNA)
RNA: GGGAGGACGAUGCGGACUGGACCAAACCGUCGCCGAUACCCGGAUACUUUGCUCCCAGACGACUCGCCCGA
modifications: 2'-F C and U
B6: TN41 (ssRNA)
RNA: GGGAGGACGAUGCGGUUAAGUCUCGGUUGAAUGCCCAUCCCAGAUCCCCCUGACCCAGACGACUCGCCCGA
modifications: 2'-F C and U
B7: TN9.4M5 (ssRNA)
RNA: GGGAGGACGAUGCGGAACAAUGCACUCGUCGCCGUAAUGGAUGUUUUGCUCCCUG
modifications: 2'-F C and U; 2'-OMe A36,A37,G39,G40,A41,G43,G48; 3'-3' cap
B8: TN9.4M135G31 (ssRNA)
RNA: B7 RNA
modifications: 2'-F C and U; 2'-OMe purines of sectors 1,3,5 plus G31; 5' hexyl amine; 3'-3' cap
B9: TN9.4Me (ssRNA)
RNA: B7 RNA
modifications: 2'-F C and U; 2'-OMe all purines; 3'-3' cap
B10: TN9.4M2 (ssRNA)
RNA: B7 RNA
modifications: 2'-F C and U; 2'-OMe G6,A7,G9,A10,G12,G14; 3'-3' cap
B11: TN9.4M135A10 (ssRNA)
RNA: B7 RNA
modifications: 2'-F C and U; 2'-OMe purines of sectors 1,3,5 plus A10; 5' hexyl amine; 3'-3' cap
B12: TN9.4M135G9 (ssRNA)
RNA: B7 RNA
modifications: 2'-F C and U; 2'-OMe purines of sectors 1,3,5 plus G9; 5' hexyl amine; 3'-3' cap
B13: TN9.4M135A7 (ssRNA)
RNA: B7 RNA
modifications: 2'-F C and U; 2'-OMe purines of sectors 1,3,5 plus A7; 5' hexyl amine; 3'-3' cap
B14: TN9.4M135G6 (ssRNA)
RNA: B7 RNA
modifications: 2'-F C and U; 2'-OMe purines of sectors 1,3,5 plus G6; 5' hexyl amine; 3'-3' cap
B15: TN9.4M135G28 (ssRNA)
RNA: B7 RNA
modifications: 2'-F C and U; 2'-OMe purines of sectors 1,3,5 plus G28; 5' hexyl amine; 3'-3' cap
B16: TN9.4M1 (ssRNA)
RNA: B7 RNA
modifications: 2'-F C and U; 2'-OMe G1,G2,G3,A4,G5,G55; 3'-3' cap
B17: TN9.4M1235 (ssRNA)
RNA: B7 RNA
modifications: 2'-F C and U; 2'-OMe purines of sectors 1,2,3,5 (G28,G31,G34 2'-OH); 5' hexyl amine; 3'-3' cap
B18: TN9.4M3 (ssRNA)
RNA: B7 RNA
modifications: 2'-F C and U; 2'-OMe G15,A16,A17,A19,A20,G22,A24; 3'-3' cap
B19: TN9.4M135G34 (ssRNA)
RNA: B7 RNA
modifications: 2'-F C and U; 2'-OMe purines of sectors 1,3,5 plus G34; 5' hexyl amine; 3'-3' cap
B20: TN9.4M135G12G14 (ssRNA)
RNA: B7 RNA
modifications: 2'-F C and U; 2'-OMe purines of sectors 1,3,5 plus G12,G14; 5' hexyl amine; 3'-3' cap
B21: TN9.4 (ssRNA)
RNA: B7 RNA
modifications: 2'-F C and U; 3'-3' cap
B22: TN32 (ssRNA)
RNA: GGGAGGACGAUGCGGCAACCUCAAUCUUGACAUUUCCCGCACCUAAAUUUGCCCCCAGACGACUCGCCCGA
modifications: 2'-F C and U
B23: TN4 (ssRNA)
RNA: GGGAGGACGAUGCGGCAACCUCGAAAGACUUUUCCCGCAUCACUGUGUACUCCCCCAGACGACUCGCCCGA
modifications: 2'-F C and U
B24: TN45 (ssRNA)
RNA: GGGAGGACGAUGCGGCAAUCUCCGAAAAAGACUCUUCCUGCAUCCUCUCACCCCCCAGACGACUCGCCCGA
modifications: 2'-F C and U
B25: TN11 (ssRNA)
RNA: GGGAGGACGAUGCGGCAAUCAAAACUCACGUUAUUCCCUCAUCUAUUAGCUUCCCCAGACGACUCGCCCGA
modifications: 2'-F C and U
B26: TN29 (ssRNA)
RNA: GGGAGGACGAUGCGGCCAACCUCAUUUUGACACUUCGCCGCACCUAAUUGCCCCCAGACGACUCGCCCGA
modifications: 2'-F C and U
B27: TN14 (ssRNA)
RNA: GGGAGGACGAUGCGGCAAACGAUCACUUACCUUUCCUGCAUCUGCUAGCCUCCCCCAGACGACUCGCCCGA
modifications: 2'-F C and U
B28: TN44 (ssRNA)
RNA: GGGAGGACGAUGCGGACGCCAGCCAUUGACCCUCGCUUCCACUAUUCCAUCCCCCCAGACGACUCGCCCGA
modifications: 2'-F C and U
B29: TN18 (ssRNA)
RNA: GGGAGGACGAUGCGGUCGACCUCGAAUGACUCUCCACCUAUCUAACAUCCCCCCCCAGACGACUCGCCCGA
modifications: 2'-F C and U
B30: TN27 (ssRNA)
RNA: GGGAGGACGAUGCGGAAACCAACCGUUGACCACCUUUUCGUUUCCGGAAAGUCCCCAGACGACUCGCCCGA
modifications: 2'-F C and U
B31: TN24 (ssRNA)
RNA: GGGAGGACGAUGCGGGACCAACUAAACUGUUCGAAAGCUGGAACAUGUCCUGACGCCAGACGACUCGCCCGA
modifications: 2'-F C and U
B32: TN22 (ssRNA)
RNA: B23 RNA with A25U
modifications: 2'-F C and U

Target: T1, Tenascin-C (Homo sapiens, UniProt P24821 P24821:23-2201)
Test: filter; Family II
Conditions: tags: Chemicon (Temecula, CA)

T1 sequence (P24821 23-2201, one chain of several): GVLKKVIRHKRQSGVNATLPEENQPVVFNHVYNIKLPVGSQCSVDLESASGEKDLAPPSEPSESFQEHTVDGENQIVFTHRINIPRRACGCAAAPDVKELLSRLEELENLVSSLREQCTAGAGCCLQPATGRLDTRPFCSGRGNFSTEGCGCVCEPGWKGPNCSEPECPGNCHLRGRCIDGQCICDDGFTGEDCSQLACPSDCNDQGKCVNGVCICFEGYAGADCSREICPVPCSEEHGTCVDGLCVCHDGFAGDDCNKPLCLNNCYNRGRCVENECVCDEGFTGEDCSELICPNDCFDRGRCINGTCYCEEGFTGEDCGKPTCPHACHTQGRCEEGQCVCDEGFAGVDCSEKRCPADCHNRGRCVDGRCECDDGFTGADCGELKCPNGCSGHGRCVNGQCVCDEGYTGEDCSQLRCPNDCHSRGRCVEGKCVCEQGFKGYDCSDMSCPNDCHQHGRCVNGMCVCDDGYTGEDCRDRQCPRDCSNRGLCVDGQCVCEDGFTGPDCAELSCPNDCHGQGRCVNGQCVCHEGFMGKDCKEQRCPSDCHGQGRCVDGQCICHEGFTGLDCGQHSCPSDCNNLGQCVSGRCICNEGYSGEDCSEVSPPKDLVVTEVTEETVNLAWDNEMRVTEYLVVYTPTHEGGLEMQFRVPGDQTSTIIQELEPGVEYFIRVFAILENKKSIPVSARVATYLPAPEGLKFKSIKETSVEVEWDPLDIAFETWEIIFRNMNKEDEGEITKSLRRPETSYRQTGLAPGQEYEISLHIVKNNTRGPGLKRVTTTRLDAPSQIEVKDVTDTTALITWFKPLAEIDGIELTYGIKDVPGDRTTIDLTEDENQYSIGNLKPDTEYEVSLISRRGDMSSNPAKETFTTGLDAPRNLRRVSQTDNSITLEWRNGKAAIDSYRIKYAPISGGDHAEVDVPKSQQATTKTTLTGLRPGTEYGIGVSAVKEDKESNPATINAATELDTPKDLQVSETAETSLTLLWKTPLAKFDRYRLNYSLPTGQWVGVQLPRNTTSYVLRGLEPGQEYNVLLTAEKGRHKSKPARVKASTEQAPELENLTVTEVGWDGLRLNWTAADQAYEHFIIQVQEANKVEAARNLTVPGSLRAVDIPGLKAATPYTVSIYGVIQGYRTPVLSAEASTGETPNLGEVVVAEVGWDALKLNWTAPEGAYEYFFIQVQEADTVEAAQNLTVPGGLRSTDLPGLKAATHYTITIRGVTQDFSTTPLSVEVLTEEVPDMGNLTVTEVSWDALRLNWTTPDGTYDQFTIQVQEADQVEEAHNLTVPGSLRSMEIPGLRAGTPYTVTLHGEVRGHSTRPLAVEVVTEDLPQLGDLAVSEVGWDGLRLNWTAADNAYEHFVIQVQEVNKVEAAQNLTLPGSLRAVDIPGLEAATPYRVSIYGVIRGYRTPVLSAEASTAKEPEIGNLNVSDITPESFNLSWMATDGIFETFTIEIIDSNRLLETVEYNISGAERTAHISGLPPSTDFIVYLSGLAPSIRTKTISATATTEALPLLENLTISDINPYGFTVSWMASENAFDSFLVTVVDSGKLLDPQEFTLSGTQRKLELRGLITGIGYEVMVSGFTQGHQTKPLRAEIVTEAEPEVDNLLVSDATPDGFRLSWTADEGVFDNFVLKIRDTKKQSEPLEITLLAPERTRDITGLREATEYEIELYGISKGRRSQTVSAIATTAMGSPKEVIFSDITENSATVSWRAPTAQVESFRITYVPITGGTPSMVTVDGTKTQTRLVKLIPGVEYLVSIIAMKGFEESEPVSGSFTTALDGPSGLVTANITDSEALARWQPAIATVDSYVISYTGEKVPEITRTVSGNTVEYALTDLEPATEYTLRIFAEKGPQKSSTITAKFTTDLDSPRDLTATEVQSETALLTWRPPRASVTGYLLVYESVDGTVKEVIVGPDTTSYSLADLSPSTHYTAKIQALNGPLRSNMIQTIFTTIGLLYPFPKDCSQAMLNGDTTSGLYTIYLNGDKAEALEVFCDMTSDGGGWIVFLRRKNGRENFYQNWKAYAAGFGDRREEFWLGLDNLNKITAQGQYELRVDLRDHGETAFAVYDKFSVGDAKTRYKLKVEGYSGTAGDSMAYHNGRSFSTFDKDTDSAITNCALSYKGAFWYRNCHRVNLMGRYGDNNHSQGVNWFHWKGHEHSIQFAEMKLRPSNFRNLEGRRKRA

Row | Binder | Kd [nM]
1 | B1 | 8
2 | B2 | 5
3 | B3 | 20
4 | B4 | 2
5 | B5 | 10
6 | B6 | 20

Target: T1, Tenascin-C
Test: filter
Conditions: tags: Chemicon (Temecula, CA)
From the text: (§1) Oligonucleotide synthesis procedures were standard for those skilled in the art (Green L S, Jellinek D, Bell C, Beebe L A, Feistner B D, Gill S C, Jucker F M, Janjic N. Chem Biol 1995 Oct.;2(10):683-95). 2′-fluoro pyrimidine phosphoramidite monomers were obtained from JBL Scientific (San Luis Obispo, Calif.); 2′-OMe purine, 2′-OH purine, hexyl amine, and (CH₂CH₂O)₆ monomers, along with the dT polystyrene solid support, were obtained from Glen Research (Sterling, Va.). Aptamer affinities were determined using nitrocellulose filter partitioning (Green et al., supra).

Row | Binder | Kd [nM]
7 | B7 | 4
8 | B8 | 55
9 | B9 | 10
10 | B10 | 20
11 | B11 | 1.3
12 | B12 | 7.7
13 | B13 | 1.7
14 | B14 | 2.2
15 | B15 | 37
16 | B16 | 6
17 | B17 | 16.5
18 | B18 | 7
19 | B19 | 7
20 | B20 | 2.5

Target: T1, Tenascin-C
Test: filter; unit printed as nN
Conditions: tags: Chemicon (Temecula, CA)
From the text: as §1

Row | Binder | Kd [nM]
21 | B21 | 2

Target: T1, Tenascin-C
Test: filter
Conditions: tags: Chemicon (Temecula, CA)
Remark: another data set of the same source

Row | Binder | binding result
22 | GGGAGGACGCACUCGUCGCCGUAAUGGAUGUUUUGCUCCCUG (ssRNA, 2'-F C and U [2'-F: 8,10,12-14,16,17,19,20,22,25,29,31-34,36-41]) [TN9 with CACU loop] | binds
23 | GGGAGGACGGAGACGUCGCCGUAAUGGAUGUUUUGCUCCCUG (ssRNA, 2'-F C and U [2'-F: 8,14,16,17,19,20,22,25,29,31-34,36-41]) [TN9 with GAGA loop] | binds

Target: T1, Tenascin-C
Test: filter; Family I
Conditions: tags: Chemicon (Temecula, CA)
Method: (§2) which contains the T7 polymerase promoter (underlined). RNA was prepared with T7 RNA polymerase as described previously in Fitzwater, T., and Polisky, B. 1996. A SELEX primer. Methods Enzymol. 267, 275-301, incorporated herein by reference in its entirety. All transcription reactions were performed in the presence of pyrimidine nucleotides that were 2′-fluoro (2′-F) modified on the sugar moiety. This substitution confers enhanced resistance to ribonucleases that utilize the 2′-hydroxyl moiety for cleavage of the phosphodiester bond. Specifically, each transcription mixture contained 3.3 mM 2′-F UTP and 3.3 mM 2′-F CTP along with 1 mM GTP and ATP. The initial randomized RNA library thus produced comprised 3×10¹⁴ molecules. The affinities of individual ligands for tenascin-C were determined by standard methods using nitrocellulose filter partitioning (Tuerk C, Gold L. Science Aug. 3, 1990 3;249(4968):505-10).

Row | Binder | Kd [nM]
24 | B22 | 15
25 | B23 | 40
26 | B24 | 30
27 | B25 | 10
28 | B26 | 25
29 | B27 | 20
30 | B28 | 10

Target: T1, Tenascin-C
Test: filter; orphan
Conditions: tags: Chemicon (Temecula, CA)
Method: as §2

Row | Binder | Kd [nM]
31 | B29 | 145
32 | B30 | 110
33 | B31 | 10

Target: T1, Tenascin-C
Test: filter; Family I; printed as 7N22
Conditions: tags: Chemicon (Temecula, CA)

Row | Binder | Kd [nM]
34 | B32 | 40
